One assay has as its target T1, BACE1 (Homo sapiens, UniProt P56817).
T1 construct: Human HEK293 cells which are stably transfected with a vector expressing a cDNA of the human APP wt gene (APP695); endogenous in cells; host or cells: HEK293 (human), stably transfected with human APP695 wt
Kind of assay: Cellular Aβ-lowering assay (Aβ40 ELISA of culture supernatant). The class given is cell-based. As to the method:
The compounds were investigated in accordance with the test given hereinafter.
Cellular Aβ-Lowering Assay:
Human HEK293 cells which are stably transfected with a vector expressing a cDNA of the human APP wt gene (APP695) were used to assess the potency of the compounds in a cellular assay. The cells were seeded in 96-well microtiter plates in cell culture medium (Iscove, plus 10% (v/v) fetal bovine serum, glutamine, penicillin/streptomycin) to about 80% confluence and the compounds were added at a 10× concentration in 1/10 volume of medium without FCS containing 8% DMSO (final concentration of DMSO was kept at 0.8% v/v). After 18-20 hrs incubation at 37° C. and 5% CO2 in a humidified incubator the culture supernatant was harvested for the determination of Aβ40 concentrations. 96 well ELISA plates (e.g., Nunc MaxiSorb) were coated with monoclonal antibody which specifically recognize the C-terminal end of Aβ40 (Brockhaus et al., NeuroReport 9; 1481-1486; 1998). After blocking of non-specific binding sites with e.g. 1% BSA and washing, the culture supernatants were added in suitable dilutions together with a horseradish peroxidase-coupled Aβ detection antibody (e.g., antibody 4G8, Senetek, Maryland Heights, Mo.) and incubated for 5 to 7 hrs. Subsequently the wells of the microtiter plate were washed extensively with Tris-buffered saline containing 0.05% Tween 20 and the assay was developed with tetramethylbenzidine/H2O2 in citric acid buffer. After stopping the reaction with one volume 1 N H2SO4 the reaction was measured in an ELISA reader at 450 nm wavelength. The concentrations of Aβ in the culture supernatants were calculated from a standard curve obtained with known amounts of pure Aβ peptide.

Another assay addresses BACE1 enzyme (UniProt P56817 46-501, limits assumed). Kind of assay: cell-based or functional assay.
Setting [1] is: Aβ40 in supernatant of human HEK293 cells stably transfected with human APP wt (APP695), 18-20 hrs incubation, read-out: IC 50.

Like-named read-outs stand apart in the source and are kept apart here. *1 amine or outer side, *2 acyl side, *3 side chain or, on linkers, in order; H or OH if unused. Where a SMILES comes first, the peptide text is derived from it. Where no end group is shown, it is not given here. [ ]: non-standard residue; d: D form. The star is where a group is joined. Succinyl(4-O-cholesteryl) = CC(C)CCC[C@@H](C)[C@H]1CC[C@H]2[C@@H]3CC=C4C[C@@H](OC(=O)CCC(=O)*)CC[C@]4(C)[C@H]3CC[C@]12C; MetSta(3S,4S) = CSCC[C@H](N[*:1])[C@@H](O)CC(=O)[*:2]; Sta = CC(C)C[C@H](N)[C@@H](O)CC(=O)O; PEG4 = NCCOCCOCCOCCOCCC(=O)O; PEG3 = NCCOCCOCCOCCC(=O)O; Ava = NCCCCC(=O)O; βAla = NCCC(=O)O

T1 sequence (P56817 46-501): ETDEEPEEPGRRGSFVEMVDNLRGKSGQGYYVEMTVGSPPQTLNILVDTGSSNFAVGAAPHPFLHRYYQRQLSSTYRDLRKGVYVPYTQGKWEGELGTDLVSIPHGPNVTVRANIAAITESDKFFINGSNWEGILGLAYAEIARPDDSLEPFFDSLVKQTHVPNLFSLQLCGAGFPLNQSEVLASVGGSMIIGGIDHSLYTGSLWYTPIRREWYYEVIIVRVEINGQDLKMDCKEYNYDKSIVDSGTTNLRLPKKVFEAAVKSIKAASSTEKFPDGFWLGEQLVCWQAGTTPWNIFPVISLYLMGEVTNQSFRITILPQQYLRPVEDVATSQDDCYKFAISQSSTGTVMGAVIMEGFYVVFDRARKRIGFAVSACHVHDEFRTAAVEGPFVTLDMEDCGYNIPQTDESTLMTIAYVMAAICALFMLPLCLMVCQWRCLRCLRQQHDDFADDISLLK
Chain of BACE1 enzyme (P56817 46-501 limits assumed): as the sequence (P56817 46-501) above

For the molecule `CC[C@H](C)[C@H](NC(=O)[C@H](Cc1ccccc1)NC(=O)[C@H](Cc1ccc(O)cc1)NC(=O)[C@@H]1CCCN1C(=O)[C@@H](N)Cc1ccc(O)cc1)C(=O)N1CCC[C@H]1C(=O)N[C@@H](CC(C)C)C(=O)NCC(=O)NCC(=O)NCC(=O)N[C@@H](CCC(=O)O)C(=O)N[C@H](C(=O)N[C@@H](CC(N)=O)C(=O)N[C@@H](CC(C)C)[C@@H](O)CC(=O)N[C@H](C(=O)N[C@@H](C)C(=O)N[C@@H](CCC(=O)O)C(=O)N1CCC[C@@H]1C(=O)N[C@@H](CCCCNC(=O)CCC(=O)O[C@H]1CC[C@@]2(C)C(=CC[C@H]3[C@@H]4CC[C@H]([C@H](C)CCCC(C)C)[C@@]4(C)CC[C@@H]32)C1)C(N)=O)C(C)C)C(C)C` [Example 2, Tyr-Pro-Tyr-Phe-Ile-Pro-Leu-Gly-Gly-Gly-Glu-Val-Asn-Sta-Val-Ala-Glu-DPro-Lys(Chol)-NH2], the IC50 against BACE1 came to 27 pM. Take `CC[C@H](C)[C@H](NC(=O)[C@H](Cc1ccccc1)NC(=O)[C@H](Cc1ccc(O)cc1)NC(=O)[C@@H]1CCCN1C(=O)[C@@H](N)Cc1ccc(O)cc1)C(=O)N1CCC[C@H]1C(=O)N[C@@H](CC(C)C)C(=O)NCCOCCOCCOCCC(=O)N[C@@H](CCC(=O)O)C(=O)N[C@H](C(=O)N[C@@H](CC(N)=O)C(=O)N[C@@H](CC(C)C)[C@@H](O)CC(=O)N[C@H](C(=O)N[C@@H](C)C(=O)N[C@@H](CCC(=O)O)C(=O)N1CCC[C@@H]1C(=O)N[C@@H](CCCCNC(=O)CCC(=O)O[C@H]1CC[C@@]2(C)C(=CC[C@H]3[C@@H]4CC[C@H]([C@H](C)CCCC(C)C)[C@@]4(C)CC[C@@H]32)C1)C(N)=O)C(C)C)C(C)C` [Example 13, Tyr-Pro-Tyr-Phe-Ile-Pro-Leu-PEG(3)-Glu-Val-Asn-Sta-Val-Ala-Glu-DPro-Lys(Chol)-NH2] (H-YPYFIPL[PEG3]EVN[Sta]VAE[dP]K(Succinyl(4-O-cholesteryl))-NH2): at BACE1 (setting [1]), the IC50 is 43 pM.

Regarding `CC[C@H](C)[C@H](NC(=O)[C@H](Cc1ccccc1)NC(=O)[C@H](Cc1ccc(O)cc1)NC(=O)[C@@H]1CCCN1C(=O)[C@@H](N)Cc1ccc(O)cc1)C(=O)N1CCC[C@H]1C(=O)N[C@@H](CC(C)C)C(=O)NCCOCCOCCOCCOCCC(=O)N[C@@H](CCC(=O)O)C(=O)N[C@H](C(=O)N[C@@H](CC(N)=O)C(=O)N[C@@H](CC(C)C)[C@@H](O)CC(=O)N[C@H](C(=O)N[C@@H](C)C(=O)N[C@@H](CCC(=O)O)C(=O)N1CCC[C@@H]1C(=O)N[C@@H](CCCCNC(=O)CCC(=O)O[C@H]1CC[C@@]2(C)C(=CC[C@H]3[C@@H]4CC[C@H]([C@H](C)CCCC(C)C)[C@@]4(C)CC[C@@H]32)C1)C(N)=O)C(C)C)C(C)C` [Example 14, Tyr-Pro-Tyr-Phe-Ile-Pro-Leu-PEG(4)-Glu-Val-Asn-Sta-Val-Ala-Glu-DPro-Lys(Chol)-NH2] (H-YPYFIPL[PEG4]EVN[Sta]VAE[dP]K(Succinyl(4-O-cholesteryl))-NH2), the IC50 at BACE1 (setting [1]) came out at 27 pM. For the molecule `CC[C@H](C)[C@H](NC(=O)[C@H](Cc1ccccc1)NC(=O)[C@H](Cc1ccc(O)cc1)NC(=O)[C@@H]1CCCN1C(=O)[C@@H](N)Cc1ccc(O)cc1)C(=O)N1CCC[C@H]1C(=O)N[C@@H](CC(C)C)C(=O)NCC(=O)NCC(=O)NCC(=O)NCC(=O)N[C@@H](CCC(=O)O)C(=O)N[C@H](C(=O)N[C@@H](CC(N)=O)C(=O)N[C@@H](CCSC)[C@@H](O)CC(=O)N[C@H](C(=O)N[C@@H](C)C(=O)N[C@@H](CCC(=O)O)C(=O)N[C@H](Cc1ccccc1)C(=O)N[C@@H](CCCCNC(=O)CCC(=O)O[C@H]1CC[C@@]2(C)C(=CC[C@H]3[C@@H]4CC[C@H]([C@H](C)CCCC(C)C)[C@@]4(C)CC[C@@H]32)C1)C(N)=O)C(C)C)C(C)C` [Example 24, Tyr-Pro-Tyr-Phe-Ile-Pro-Leu-Gly-Gly-Gly-Gly-Glu-Val-Asn-MetSta-Val-Ala-Glu-DPhe-Lys(Chol)-NH2], the IC50 on BACE1 (setting [1]) stood at 52 pM. As for YPYFI[dK]LG[dK]GEVN[Sta]VAE[dP]K(Chol'ester')-NH2 (also: x 3TFA salt), the “IC50, cellular Aβ-lowering assay (Aβ40 in supernatant of HEK293 cells expressing human APP695)” value (shortened to “IC50, cellular Aβ-lowering assay”) in the assay with BACE1 enzyme came out at 450 pM.

As for YPYKIPLG[dK]GEVN[Sta]VAE[dP]K(Chol'ester')-NH2 (also: x 3TFA salt), the “IC50, cellular Aβ-lowering assay” value in the assay with BACE1 enzyme stood at 2300 pM.

Take YPYFIPLGGGGEVN[Sta]VAE[dP]K(Chol)-NH2 (also: TFA salt) [Tyr-Pro-Tyr-Phe-Ile-Pro-Leu-Gly-Gly-Gly-Gly-Glu-Val-Asn-Sta-Val-Ala-Glu-DPro-Lys(Chol)-NH2 x TFA]: in the assay with BACE1 enzyme, the “IC50, cellular Aβ-lowering assay” value amounted to 42 pM. YPYFIPLG[dA]GEVN[Sta]VAE[dP]K(Chol'ester')-NH2 (also: x TFA salt) [Tyr-Pro-Tyr-Phe-Ile-Pro-Leu-Gly-DAla-Gly-Glu-Val-Asn-Sta-Val-Ala-Glu-DPro-Lys(Chol'ester')-NH2 x TFA]: the “IC50, cellular Aβ-lowering assay” value in the assay with BACE1 enzyme worked out at 20 pM. As to YPYFIPKG[dK]GEVN[Sta]VAE[dP]K(Chol'ester')-NH2 (also: 3TFA salt), the “IC50, cellular Aβ-lowering assay” value with BACE1 enzyme was determined as 12 pM.

B1: Tyr-Pro-Lys-Phe-Ile-Pro-Leu-Gly-DLys-Gly-Glu-Val-Asn-Leu*Ala-Ala-Glu-DPro-Lys(Chol'ester')-NH2 x 3TFA (peptide)
peptide: YPKFIPLG[dK]GEVNLAAE[dP]K(Chol'ester')-NH2
modifications: also: Leu14*Ala15 Tang hydroxyethylene dipeptide isostere, trifluoroacetate salt (x 3TFA)
With B1, in the assay with BACE1 enzyme, the “IC50, cellular Aβ-lowering assay” value worked out at 39 pM. Turning to YPYFIPLSGGEVN[Sta]VAE[dP]K(Chol'ester')-NH2 (also: TFA salt) [Tyr-Pro-Tyr-Phe-Ile-Pro-Leu-Ser-Gly-Gly-Glu-Val-Asn-Sta-Val-Ala-Glu-DPro-Lys(Chol'ester')-NH2 x TFA], the “IC50, cellular Aβ-lowering assay” value with BACE1 enzyme was 52 pM. As for YPYFIPL[βAla]EVN[Sta]VAE[dP]K(Chol)-NH2 (also: TFA salt) [Tyr-Pro-Tyr-Phe-Ile-Pro-Leu-NH(CH2)2CO-Glu-Val-Asn-Sta-Val-Ala-Glu-DPro-Lys(Chol)-NH2 x TFA], in the assay with BACE1 enzyme, the “IC50, cellular Aβ-lowering assay” value stood at 2800 pM. Consider YPYFIP[dK]G[dK]GEVN[Sta]VAE[dP]K(Chol'ester')-NH2 (also: x 3TFA salt), for which the “IC50, cellular Aβ-lowering assay” value with BACE1 enzyme came out at 5.9 pM. With YPYFIPL[dA]GGEVN[Sta]VAE[dP]K(Chol'ester')-NH2 (also: x TFA salt) [Tyr-Pro-Tyr-Phe-Ile-Pro-Leu-DAla-Gly-Gly-Glu-Val-Asn-Sta-Val-Ala-Glu-DPro-Lys(Chol'ester')-NH2 x TFA], the “IC50, cellular Aβ-lowering assay” value in the assay with BACE1 enzyme is 55 pM. Regarding Y[dK]YFIPLG[dK]GEVN[Sta]VAE[dP]K(Chol'ester')-NH2 (also: x 3TFA salt), the “IC50, cellular Aβ-lowering assay” value with BACE1 enzyme turned out to be 3400 pM. In the case of YPY[dK]IPLG[dK]GEVN[Sta]VAE[dP]K(Chol'ester')-NH2 (also: x 3TFA salt), in the assay with BACE1 enzyme, the “IC50, cellular Aβ-lowering assay” value was 6500 pM. For YPYFIPLGGGGGEVN[Sta]VAE[dP]K(Chol)-NH2 (also: TFA salt) [Tyr-Pro-Tyr-Phe-Ile-Pro-Leu-Gly-Gly-Gly-Gly-Gly-Glu-Val-Asn-Sta-Val-Ala-Glu-DPro-Lys(Chol)-NH2 x TFA], the “IC50, cellular Aβ-lowering assay” value in the assay with BACE1 enzyme stood at 44 pM. Still for that read-out and setting: with YPKFIPLG[dK]GEVN[MetSta(3S,4S)]VAEPK(Chol'ester')-NH2 (also: x 3TFA salt) the figure was 61 pM; with YPYF[dK]PLG[dK]GEVN[Sta]VAE[dP]K(Chol'ester')-NH2 (also: x 3TFA salt), 7600 pM.

Regarding YP[dK]FIPLG[dK]GEVN[Sta]VAE[dP]K(Chol'ester')-NH2 (also: x 3TFA salt), the “IC50, cellular Aβ-lowering assay” value with BACE1 enzyme is 780 pM. Same read-out and setting: with [dK]PYFIPLG[dK]GEVN[Sta]VAE[dP]K(Chol'ester')-NH2 (also: x 3TFA salt) the figure was 13 pM; with YPYFIPLGGGGEVN[Sta]DAE[dP]K(Chol)-NH2 (also: x TFA salt) [Tyr-Pro-Tyr-Phe-Ile-Pro-Leu-Gly-Gly-Gly-Gly-Glu-Val-Asn-Sta-Asp-Ala-Glu-DPro-Lys(Chol)-NH2 x TFA], 3300 pM. YPYFIPL[Ava]EVN[Sta]VAE[dP]K(Chol)-NH2 (also: TFA salt) [Tyr-Pro-Tyr-Phe-Ile-Pro-Leu-NH(CH2)4CO-Glu-Val-Asn-Sta-Val-Ala-Glu-DPro-Lys(Chol)-NH2 x TFA]: the “IC50, cellular Aβ-lowering assay” value with BACE1 enzyme was determined as 840 pM. Turning to YKYFIPLG[dK]GEVN[Sta]VAE[dP]K(Chol'ester')-NH2 (also: x 3TFA salt), the “IC50, cellular Aβ-lowering assay” value with BACE1 enzyme was 250 pM.

For the origin of these results see patent US10683329B2, “Dual-site BACE1 inhibitors” (priority 2014, dated 2020).
